Results taken from publication PMC10808224, “Lsr2 acts as a cyclic di-GMP receptor that promotes keto-mycolic acid synthesis and biofilm formation in mycobacteria” (Nature Communications, 2024).

How the values were obtained:
[1] = biological target: Lsr2Mtb (Lsr2BCG in main text) (Mycobacterium tuberculosis) (UniProt P9WIP7); assay: EMSA
[2] = biological target: Lsr2Msm (Mycobacterium smegmatis mc2 155) (UniProt A0R576); assay: EMSA; conditions: EMSA: 50 mM Tris-HCl pH 7.5, 50 mM NaCl, 10% glycerol, 30 uL, room temperature 15 min; 8% native PAGE in 0.5x TBE

Row | Sequence | binding [1] | binding [2]
1 | CCGCTCGGATCGGGGTTCCGTCGGCCCTGGCGCTGGGTGCGGCCGGCGGCGCGTTGGCGGCTCTAGCCTCTAGACGCCAATCACGCTGATAAGCTGCGCCGTTAGCCTGGCGACGATGCGGCCCGCGCAGCGGGGCGAGGAGGAGCCGGGCAATAGGGCCCAGCCTGGCGACGATGCGACCCGCGCAGCGGGGCGAGGAGGAGCCGGGCAATAGGGCTTAGCAACTATTCGAGCGGAGGGCGGCAGCGGCATGACAGTTCCCGAAGAAGCCCAGACACTGATCGGCAAGCATTATCGGGC (double strand) [hadDMtbp / hadDBCGp] | binds | –
2 | TAGTCGGGGTAGCGGTAGTGAGTCCCGATGATGTTTGCCGCGATGCTCATGTGTTCTCTGCTACTCCCGTGCTTCCAGCTTCAACTGCCCGGCTGCGGAAGCCTATCAGCGTGGGGGTTCAGCGAATGTCAGCGAAGGTCAGCGAAGGTCATGGCGGCGGGAGGCCACCGCGGCCAGCGCGCCGCCGAGCGCCCCTAGGGCCAGCGCGGACGGCACACCGATGCGGGCCGCTTTGCGGGCCGTGCGGAAGTCGCGGATCTCCCAGCCGCGTTCCCGCGCGACGTCGCGCAGCGCGGCGTC (double strand) [hadDMsmp] | – | binds
